Assay results published in patent US6017747A, “Nucleic acids encoding a collagenase” (The Regents of the University of California, priority 1997, dated 2000).

Columns and labels:
recombinant collagenase = biological target: T1, recombinant collagenase (Leptuca pugilator, UniProt P00771); experiment: Inhibition of collagenolytic activity of recombinant collagenase; assay type: biochemical, Uca pugilator; conditions: recombinant enzyme
T1 construct: the mature form of the cloned collagenase (illustrated in the boxed section) has 226 amino acid residues; made in house; host or cells: Saccharomyces cerevisiae (strain AB110 or DM101α), PyFC vector
T1 sequence (P00771 1-226 V95S): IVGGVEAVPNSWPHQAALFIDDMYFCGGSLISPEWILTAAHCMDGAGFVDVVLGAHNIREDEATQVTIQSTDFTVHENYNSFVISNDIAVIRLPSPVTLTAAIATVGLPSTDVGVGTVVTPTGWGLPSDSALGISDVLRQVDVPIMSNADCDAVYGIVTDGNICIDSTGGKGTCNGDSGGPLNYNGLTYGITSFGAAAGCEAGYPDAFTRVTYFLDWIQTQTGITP
Excerpt: The collagenolytic activity of the recombinant collagenase was compared directly to that of the endogenous enzyme isolated from the crab hepatopancreas. The specificity and rate of collagen cleavage are similar.

[1] = single residue esters; cited from earlier work
[2] = Steady state kinetics versus the Suc-AAP-Xaa-pNA substrate set; assay type: biochemical; conditions: for r of correlation for log kcat or log (kcat /Km) versus P1 residue volume: Val and Ile omitted for chymotrypsin, Nva and Leu deleted for elastase; for correlation of log (kcat /Km) with π: hydrophobicity constant π
Method: Recombinant rat trypsin was purified by published techniques. Other reagents were purchased from the following sources: TLCK treated bovine chymotrypsin (Sigma), porcine elastase (Calbiochem), bovine calf skin collagen (US Biochemical), Suc-AAPAbu-pNA (Bachem of California) and Z-GPR-Sbzl (Enzyme Systems Products). All other substrates were from Bachem Bioscience. All enzyme active site titrations, substrate calibrations, kinetic assays and collagen digestions were carried out by conventional methods. Briefly, pNA kinetic assays were monitored at 410 nm (E410 =8,480 M^-1 cm^-1) in 50 mM Tris, 100 mM NaCl, 20 mM CaCl2, pH 8.0 at 25° C. 1 to 4% DMF or 2% Me2 SO was present in the final reaction buffer. Benzylthioester kinetic assays were monitored at 324 nm (E324 =19,800 M^-1 cm^-1) in the above buffer at 25° C. with the inclusion of 250 μM dithiodipyridine (Chemical Dynamics) and 2% DMF. AMC spectrofluorimetric assays were monitored at an excitation wavelength of 380 nm and an emission wavelength of 460 nm, under conditions identical to those for pNA. Assays were done in duplicate for 5 substrate concentrations, except for Suc-AAP-Asp-pNA, for which the kcat /Km was determined using 3 substrate concentrations in duplicate. The steady state kinetic parameters were determined by non-linear regression fit to the Michaelis Menten equation. Standard deviation in kcat /Km was generally less than 10%, though individual rate and binding constants varied to a greater extent. […] Kinetic parameters were plotted versus P1 residue volume and the hydrophobicity constant, π.
The Michaelis constants of the recombinant collagenase were determined for a matched set of 15 Suc-AAP-Xaa-pNA substrates, varying only in the P1 residue. […] The remaining 10 substrates Ala, Abu (2-aminobutyric acid), Nva (norvaline), Val, Nle (norleucine), Ile, Met, Orn (ornithine), Asp and Glu were selected to more fully map the specificity of crab collagenase for hydrophobic, basic and acidic residues. The substrate preference of the collagenase is quite broad. […] Acidic residues are generally poor substrates. […] This implies the existence of several distinct S1 sites or a single flexible site. […] The correlation is improved and slope essentially unchanged if only the hydrophobic residues Ala, Abu (2-aminobutyric acid), Nva (norvaline), Nle (norleucine), Leu, Met and Phe are included. […] It is unclear how the enzyme binds the neutral hydrophilic and basic residues so as to minimize the effects of charge or polarity in the transition state. Bias or insensitivity in the data set may also affect the interpretation of the correlations.
The steady state kinetic parameters of chymotrypsin and elastase versus the Suc-AAP-Xaa-pNA substrate set were determined under conditions identical to those for crab collagenase. This was necessary in order to accurately compare the activities of these different enzymes.

[3] = Single residue versus peptidyl P1-Phe substrate efficiency; assay type: biochemical
Method: (§1) Recombinant rat trypsin was purified by published techniques. Other reagents were purchased from the following sources: TLCK treated bovine chymotrypsin (Sigma), porcine elastase (Calbiochem), bovine calf skin collagen (US Biochemical), Suc-AAPAbu-pNA (Bachem of California) and Z-GPR-Sbzl (Enzyme Systems Products). All other substrates were from Bachem Bioscience. All enzyme active site titrations, substrate calibrations, kinetic assays and collagen digestions were carried out by conventional methods. Briefly, pNA kinetic assays were monitored at 410 nm (E410 =8,480 M^-1 cm^-1) in 50 mM Tris, 100 mM NaCl, 20 mM CaCl2, pH 8.0 at 25° C. 1 to 4% DMF or 2% Me2 SO was present in the final reaction buffer. Benzylthioester kinetic assays were monitored at 324 nm (E324 =19,800 M^-1 cm^-1) in the above buffer at 25° C. with the inclusion of 250 μM dithiodipyridine (Chemical Dynamics) and 2% DMF. AMC spectrofluorimetric assays were monitored at an excitation wavelength of 380 nm and an emission wavelength of 460 nm, under conditions identical to those for pNA. Assays were done in duplicate for 5 substrate concentrations, except for Suc-AAP-Asp-pNA, for which the kcat /Km was determined using 3 substrate concentrations in duplicate. The steady state kinetic parameters were determined by non-linear regression fit to the Michaelis Menten equation. […]

[4] = Single residue versus peptidyl P1-Ala substrate efficiency; assay type: biochemical
Method: as §1

[5] = Single residue versus peptidyl P1-Arg substrate efficiency; assay type: biochemical
Method: as §1

NCCc1ccc(S(=O)(=O)F)cc1 [AEBSF]
inhibition of collagenolytic activity (recombinant collagenase): completely inhibited

Chymotrypsin
slope of correlation of log (k2 /KS) with π [1]: 2.2 | correlation for log kcat or log (kcat /Km) versus P1 residue volume [2]: Strong positive | correlation of Km versus volume [2]: tight negative correlation | sensitivity of log (kcat /Km) to residue volume [2]: twice that of collagenase | r of correlation for log kcat or log (kcat /Km) versus P1 residue volume [2]: ≤ 0.95 | correlation of log (kcat /Km) with π [2]: also correlated with π | kcat /Km differential, single residue versus peptidyl substrate [3]: 10,000 fold

elastase: porcine elastase (Calbiochem)
kcat /Km differential, single residue versus peptidyl substrate [4]: 100,000 fold | correlation for log kcat or log (kcat /Km) versus P1 residue volume [2]: negative | correlation of Km versus volume [2]: much weaker | sensitivity of log (kcat /Km) to residue volume [2]: twice that of collagenase | r of correlation for log kcat or log (kcat /Km) versus P1 residue volume [2]: ≤ 0.95 | correlation of log (kcat /Km) with π [2]: correlated well, with a slope equal and opposite that for chymotrypsin

B1: Trypsin: Recombinant rat trypsin purified by published techniques (protein, UniProt P00763 24-246, looked up)
Anionic trypsin-2: IVGGYTCQENSVPYQVSLNSGYHFCGGSLINDQWVVSAAHCYKSRIQVRLGEHNINVLEGNEQFVNAAKIIKHPNFDRKTLNNDIMLIKLSSPVKLNARVATVALPSSCAPAGTQCLISGWGNTLSSGVNEPDLLQCLDAPLLPQADCEASYPGKITDNMVCVGFLEGGKDSCQGDSGGPVVCNGELQGIVSWGYGCALPDNPGVYTKVCNYVDWIQDTIAAN
kcat /Km differential, single residue versus peptidyl substrate [5]: 100 fold
